Measurements from paper PMC11579972 (Small (Weinheim an Der Bergstrasse, Germany), 2024).

Columns and labels:
[1] = target: T1, An‐FD, Pro‐Asp‐(Phe‐Asp)5‐Pro; assay: ITC
T1 peptide: PDFDFDFDFDFDP

[2] = target: T2, Sc‐FD (a scrambled version of An‐FD); assay: ITC
T2 peptide: DFFPDDPFDFFDD

[3] = target: T1, An‐FD, Pro‐Asp‐(Phe‐Asp)5‐Pro; assay: MST
[4] = target: T3, An‐FD, Pro‐Asp‐(Phe‐Asp)5‐Pro; assay: other fluorescence titration
T3 chain: PDFDFDFDFDFDP

PKFKFKFKFKFKP [Cat‐FK, Pro‐Lys‐(Phe‐Lys)5‐Pro]
Kd [1]: ~40 µM | dH [1]: -8.37 kcal/mol | stoichiometry N [1]: 1.12 | dH [2]: 1.43 ± 2.87 kcal/mol | Kd [3]: 50 ± 8 µM | critical coassembly concentration (CCC) at 25% An-FD [4]: 0.096, 0.058, and 0.14 mM | critical coassembly concentration (CCC) at 50% An-FD [4]: 0.096, 0.058, and 0.14 mM | critical coassembly concentration (CCC) at 75% An-FD [4]: 0.096, 0.058, and 0.14 mM
